{
  "source": "paper PMC9482650",
  "about": "“Quantitative fragmentomics allow affinity mapping of interactomes” (Nature Communications, 2022)",
  "data": [
    {"molecular_target": "T1, APBA1_1, Q02410", "T1 sequence (Q02410 651-752, limits assumed, looked up)": "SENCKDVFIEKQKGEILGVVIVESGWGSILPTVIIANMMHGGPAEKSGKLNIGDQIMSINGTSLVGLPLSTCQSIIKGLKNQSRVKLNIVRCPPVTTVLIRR", "experiment": "holdup assay", "set-up": "key: below the threshold = too weak to quantify, mostly under pKd 3.1 to 4", "settings": "plain residues with an end cap or a label only (N-terminal biotin on a linker: ado-ado)", "values": [
      {"binder": "ILRKSTTTTV", "note": "[PRR16, Q569H4]", "pKd": "below the threshold"}
    ]},
    {"molecular_target": "T2, APBA1_2, Q02410", "T2 sequence (Q02410 742-832, limits assumed, looked up)": "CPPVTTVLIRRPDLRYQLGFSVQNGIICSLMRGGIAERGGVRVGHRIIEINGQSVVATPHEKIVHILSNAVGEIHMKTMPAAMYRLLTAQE", "experiment": "holdup assay", "set-up": "key: below the threshold = too weak to quantify, mostly under pKd 3.1 to 4", "settings": "plain residues with an end cap or a label only (N-terminal biotin on a linker: ado-ado)", "values": [
      {"binder": "ILRKSTTTTV", "note": "[PRR16, Q569H4]", "pKd": "below the threshold"}
    ]},
    {"molecular_target": "ARHGEF12, Q9NZN5-2", "sequence (Q9NZN5 other isoform, or with tags, fused parts or gaps)": "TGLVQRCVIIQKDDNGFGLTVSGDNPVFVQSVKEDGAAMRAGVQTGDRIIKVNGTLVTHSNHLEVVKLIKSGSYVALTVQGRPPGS", "experiment": "holdup assay", "set-up": "key: below the threshold = too weak to quantify, mostly under pKd 3.1 to 4", "settings": "plain residues with an end cap or a label only (N-terminal biotin on a linker: ado-ado)", "values": [
      {"binder": "ILRKSTTTTV", "note": "[PRR16, Q569H4]", "pKd": 4.26}
    ]},
    {"molecular_target": "DLG2_2, Q15700", "sequence (Q15700 189-283)": "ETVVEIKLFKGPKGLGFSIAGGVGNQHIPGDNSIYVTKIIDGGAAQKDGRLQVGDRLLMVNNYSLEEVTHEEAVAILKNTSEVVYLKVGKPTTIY", "experiment": "holdup assay", "set-up": "key: below the threshold = too weak to quantify, mostly under pKd 3.1 to 4", "settings": "plain residues with an end cap or a label only (N-terminal biotin on a linker: ado-ado)", "values": [
      {"binder": "ILRKSTTTTV", "note": "[PRR16, Q569H4]", "pKd": 5.17}
    ]},
    {"molecular_target": "DLG5_1, Q8TDM6", "sequence (Q8TDM6 617-713)": "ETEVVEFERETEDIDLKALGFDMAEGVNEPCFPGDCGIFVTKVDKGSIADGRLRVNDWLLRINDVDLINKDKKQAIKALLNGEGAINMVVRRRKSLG", "experiment": "holdup assay", "set-up": "key: below the threshold = too weak to quantify, mostly under pKd 3.1 to 4", "settings": "plain residues with an end cap or a label only (N-terminal biotin on a linker: ado-ado)", "values": [
      {"binder": "ILRKSTTTTV", "note": "[PRR16, Q569H4]", "pKd": "below the threshold"}
    ]},
    {"molecular_target": "FRMPD2_2, Q68DX3", "sequence (Q68DX3 944-1038)": "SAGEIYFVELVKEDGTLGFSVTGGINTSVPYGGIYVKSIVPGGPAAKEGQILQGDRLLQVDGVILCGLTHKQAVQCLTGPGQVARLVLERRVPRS", "experiment": "holdup assay", "set-up": "key: below the threshold = too weak to quantify, mostly under pKd 3.1 to 4", "settings": "plain residues with an end cap or a label only (N-terminal biotin on a linker: ado-ado)", "values": [
      {"binder": "ILRKSTTTTV", "note": "[PRR16, Q569H4]", "pKd": "below the threshold"}
    ]},
    {"molecular_target": "GOPC, Q9HD26", "experiment": "holdup assay", "set-up": "key: below the threshold = too weak to quantify, mostly under pKd 3.1 to 4", "settings": "plain residues with an end cap or a label only (N-terminal biotin on a linker: ado-ado)", "values": [
      {"binder": "ILRKSTTTTV", "note": "[PRR16, Q569H4]", "pKd": 3.92}
    ]},
    {"molecular_target": "T3, GRIP1_2, Q9Y3R0", "T3 sequence (Q9Y3R0 145-248, limits assumed, looked up)": "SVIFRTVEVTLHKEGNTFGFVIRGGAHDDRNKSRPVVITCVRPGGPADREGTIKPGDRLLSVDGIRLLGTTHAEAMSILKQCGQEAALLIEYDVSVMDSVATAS", "experiment": "holdup assay", "set-up": "key: below the threshold = too weak to quantify, mostly under pKd 3.1 to 4", "settings": "plain residues with an end cap or a label only (N-terminal biotin on a linker: ado-ado)", "values": [
      {"binder": "ILRKSTTTTV", "note": "[PRR16, Q569H4]", "pKd": "below the threshold"}
    ]},
    {"molecular_target": "T4, GRIP1_3, Q9Y3R0", "T4 sequence (Q9Y3R0 247-346, limits assumed, looked up)": "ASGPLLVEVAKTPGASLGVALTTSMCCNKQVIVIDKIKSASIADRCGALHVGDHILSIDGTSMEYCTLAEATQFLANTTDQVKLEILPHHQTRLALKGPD", "experiment": "holdup assay", "set-up": "key: below the threshold = too weak to quantify, mostly under pKd 3.1 to 4", "settings": "plain residues with an end cap or a label only (N-terminal biotin on a linker: ado-ado)", "values": [
      {"binder": "ILRKSTTTTV", "note": "[PRR16, Q569H4]", "pKd": "below the threshold"}
    ]},
    {"molecular_target": "T5, GRIP1_4, Q9Y3R0", "T5 sequence (Q9Y3R0 467-571, limits assumed, looked up)": "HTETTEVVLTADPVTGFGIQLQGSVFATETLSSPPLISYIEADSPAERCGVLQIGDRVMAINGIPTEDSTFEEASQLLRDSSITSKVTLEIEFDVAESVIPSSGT", "experiment": "holdup assay", "set-up": "key: below the threshold = too weak to quantify, mostly under pKd 3.1 to 4", "settings": "plain residues with an end cap or a label only (N-terminal biotin on a linker: ado-ado)", "values": [
      {"binder": "ILRKSTTTTV", "note": "[PRR16, Q569H4]", "pKd": "below the threshold"}
    ]},
    {"molecular_target": "GRIP2_3, Q9C0E4", "sequence (Q9C0E4 238-339)": "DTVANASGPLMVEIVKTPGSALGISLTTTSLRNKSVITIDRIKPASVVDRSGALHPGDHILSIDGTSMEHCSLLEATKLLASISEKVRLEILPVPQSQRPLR", "experiment": "holdup assay", "set-up": "key: below the threshold = too weak to quantify, mostly under pKd 3.1 to 4", "settings": "plain residues with an end cap or a label only (N-terminal biotin on a linker: ado-ado)", "values": [
      {"binder": "ILRKSTTTTV", "note": "[PRR16, Q569H4]", "pKd": "below the threshold"}
    ]},
    {"molecular_target": "T6, HTRA4, P83105", "T6 sequence (P83105 378-476, limits assumed, looked up)": "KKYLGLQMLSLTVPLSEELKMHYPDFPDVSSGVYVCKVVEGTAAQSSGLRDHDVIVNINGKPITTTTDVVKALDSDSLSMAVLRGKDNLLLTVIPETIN", "experiment": "holdup assay", "set-up": "key: below the threshold = too weak to quantify, mostly under pKd 3.1 to 4", "settings": "plain residues with an end cap or a label only (N-terminal biotin on a linker: ado-ado)", "values": [
      {"binder": "ILRKSTTTTV", "note": "[PRR16, Q569H4]", "pKd": 4.12}
    ]},
    {"molecular_target": "Inadl_2, Q8NI35", "sequence (Q8NI35 238-335)": "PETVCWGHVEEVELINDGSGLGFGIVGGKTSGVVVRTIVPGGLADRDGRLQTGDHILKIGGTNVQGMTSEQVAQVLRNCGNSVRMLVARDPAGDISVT", "experiment": "holdup assay", "set-up": "key: below the threshold = too weak to quantify, mostly under pKd 3.1 to 4", "settings": "plain residues with an end cap or a label only (N-terminal biotin on a linker: ado-ado)", "values": [
      {"binder": "ILRKSTTTTV", "note": "[PRR16, Q569H4]", "pKd": "below the threshold"}
    ]},
    {"molecular_target": "Inadl_8, Q8NI35", "sequence (Q8NI35 1425-1530)": "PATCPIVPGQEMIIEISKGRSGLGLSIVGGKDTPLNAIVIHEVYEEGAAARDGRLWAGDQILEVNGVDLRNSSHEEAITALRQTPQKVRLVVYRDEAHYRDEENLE", "experiment": "holdup assay", "set-up": "key: below the threshold = too weak to quantify, mostly under pKd 3.1 to 4", "settings": "plain residues with an end cap or a label only (N-terminal biotin on a linker: ado-ado)", "values": [
      {"binder": "ILRKSTTTTV", "note": "[PRR16, Q569H4]", "pKd": 3.62}
    ]},
    {"molecular_target": "Inadl_9, Q8NI35", "sequence (Q8NI35 1530-1615)": "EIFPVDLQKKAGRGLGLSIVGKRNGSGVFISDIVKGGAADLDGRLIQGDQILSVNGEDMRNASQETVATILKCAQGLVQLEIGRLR", "experiment": "holdup assay", "set-up": "key: below the threshold = too weak to quantify, mostly under pKd 3.1 to 4", "settings": "plain residues with an end cap or a label only (N-terminal biotin on a linker: ado-ado)", "values": [
      {"binder": "ILRKSTTTTV", "note": "[PRR16, Q569H4]", "pKd": "below the threshold"}
    ]},
    {"molecular_target": "T7, LIN7A, O14910", "T7 sequence (O14910 103-200, limits assumed, looked up)": "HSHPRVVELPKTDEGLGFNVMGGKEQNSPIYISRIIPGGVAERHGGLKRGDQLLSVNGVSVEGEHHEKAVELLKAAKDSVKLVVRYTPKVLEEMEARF", "experiment": "holdup assay", "set-up": "key: below the threshold = too weak to quantify, mostly under pKd 3.1 to 4", "settings": "plain residues with an end cap or a label only (N-terminal biotin on a linker: ado-ado)", "values": [
      {"binder": "ILRKSTTTTV", "note": "[PRR16, Q569H4]", "pKd": "below the threshold"}
    ]},
    {"molecular_target": "T8, LRRC7, Q96NW7", "T8 sequence (Q96NW7 1440-1537, limits assumed, looked up)": "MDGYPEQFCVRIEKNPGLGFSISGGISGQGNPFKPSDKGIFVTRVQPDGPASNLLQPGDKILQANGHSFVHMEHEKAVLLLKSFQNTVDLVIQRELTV", "experiment": "holdup assay", "set-up": "key: below the threshold = too weak to quantify, mostly under pKd 3.1 to 4", "settings": "plain residues with an end cap or a label only (N-terminal biotin on a linker: ado-ado)", "values": [
      {"binder": "ILRKSTTTTV", "note": "[PRR16, Q569H4]", "pKd": "below the threshold"}
    ]},
    {"molecular_target": "MAGI2_2, Q86UL8", "sequence (Q86UL8 410-522)": "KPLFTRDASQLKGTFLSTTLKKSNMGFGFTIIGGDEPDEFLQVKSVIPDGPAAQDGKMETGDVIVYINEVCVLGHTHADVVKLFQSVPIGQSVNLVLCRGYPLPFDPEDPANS", "experiment": "holdup assay", "set-up": "key: below the threshold = too weak to quantify, mostly under pKd 3.1 to 4", "settings": "plain residues with an end cap or a label only (N-terminal biotin on a linker: ado-ado)", "values": [
      {"binder": "ILRKSTTTTV", "note": "[PRR16, Q569H4]", "pKd": 5.2}
    ]},
    {"molecular_target": "NHERF2_2, Q15599", "sequence (Q15599 142-238)": "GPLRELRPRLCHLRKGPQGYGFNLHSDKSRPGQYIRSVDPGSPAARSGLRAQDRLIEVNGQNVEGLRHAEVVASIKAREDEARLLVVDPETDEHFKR", "experiment": "holdup assay", "set-up": "key: below the threshold = too weak to quantify, mostly under pKd 3.1 to 4", "settings": "plain residues with an end cap or a label only (N-terminal biotin on a linker: ado-ado)", "values": [
      {"binder": "ILRKSTTTTV", "note": "[PRR16, Q569H4]", "pKd": "below the threshold"}
    ]},
    {"molecular_target": "NOS1, P29475", "sequence (P29475 9-101)": "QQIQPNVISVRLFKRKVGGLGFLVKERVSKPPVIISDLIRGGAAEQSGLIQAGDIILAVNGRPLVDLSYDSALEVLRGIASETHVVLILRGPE", "experiment": "holdup assay", "set-up": "key: below the threshold = too weak to quantify, mostly under pKd 3.1 to 4", "settings": "plain residues with an end cap or a label only (N-terminal biotin on a linker: ado-ado)", "values": [
      {"binder": "ILRKSTTTTV", "note": "[PRR16, Q569H4]", "pKd": "below the threshold"}
    ]},
    {"molecular_target": "T9, PARD3B_1, Q8TEW8", "T9 sequence (Q8TEW8 196-299, limits assumed, looked up)": "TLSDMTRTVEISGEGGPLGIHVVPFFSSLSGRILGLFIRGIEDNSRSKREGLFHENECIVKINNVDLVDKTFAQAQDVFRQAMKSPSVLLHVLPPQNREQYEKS", "experiment": "holdup assay", "set-up": "key: below the threshold = too weak to quantify, mostly under pKd 3.1 to 4", "settings": "plain residues with an end cap or a label only (N-terminal biotin on a linker: ado-ado)", "values": [
      {"binder": "ILRKSTTTTV", "note": "[PRR16, Q569H4]", "pKd": "below the threshold"}
    ]},
    {"molecular_target": "PARD3_3, Q8TEW0", "sequence (Q8TEW0 582-685)": "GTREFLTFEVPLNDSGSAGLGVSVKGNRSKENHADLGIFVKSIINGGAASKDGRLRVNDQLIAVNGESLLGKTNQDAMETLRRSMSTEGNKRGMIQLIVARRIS", "experiment": "holdup assay", "set-up": "key: below the threshold = too weak to quantify, mostly under pKd 3.1 to 4", "settings": "plain residues with an end cap or a label only (N-terminal biotin on a linker: ado-ado)", "values": [
      {"binder": "ILRKSTTTTV", "note": "[PRR16, Q569H4]", "pKd": "below the threshold"}
    ]},
    {"molecular_target": "T10, PCLO, Q9Y6V0", "T10 sequence (Q9Y6V0 4491-4600, limits assumed, looked up)": "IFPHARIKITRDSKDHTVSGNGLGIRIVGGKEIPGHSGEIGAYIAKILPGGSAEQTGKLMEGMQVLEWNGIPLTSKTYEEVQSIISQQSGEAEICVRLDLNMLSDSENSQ", "experiment": "holdup assay", "set-up": "key: below the threshold = too weak to quantify, mostly under pKd 3.1 to 4", "settings": "plain residues with an end cap or a label only (N-terminal biotin on a linker: ado-ado)", "values": [
      {"binder": "ILRKSTTTTV", "note": "[PRR16, Q569H4]", "pKd": "below the threshold"}
    ]},
    {"molecular_target": "PDZRN4_1, Q6ZMN7", "sequence (Q6ZMN7 213-318)": "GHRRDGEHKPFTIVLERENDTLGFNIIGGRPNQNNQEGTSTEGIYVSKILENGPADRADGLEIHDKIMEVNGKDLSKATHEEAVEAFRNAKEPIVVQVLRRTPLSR", "experiment": "holdup assay", "set-up": "key: below the threshold = too weak to quantify, mostly under pKd 3.1 to 4", "settings": "plain residues with an end cap or a label only (N-terminal biotin on a linker: ado-ado)", "values": [
      {"binder": "ILRKSTTTTV", "note": "[PRR16, Q569H4]", "pKd": "below the threshold"}
    ]},
    {"molecular_target": "PICK1, Q9NRD5", "sequence (Q9NRD5 17-115)": "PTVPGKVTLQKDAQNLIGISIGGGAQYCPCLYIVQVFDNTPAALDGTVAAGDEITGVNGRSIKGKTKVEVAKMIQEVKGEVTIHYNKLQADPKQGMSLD", "experiment": "holdup assay", "set-up": "key: below the threshold = too weak to quantify, mostly under pKd 3.1 to 4", "settings": "plain residues with an end cap or a label only (N-terminal biotin on a linker: ado-ado)", "values": [
      {"binder": "ILRKSTTTTV", "note": "[PRR16, Q569H4]", "pKd": 3.95}
    ]},
    {"molecular_target": "T11, TIAM2, Q8IVF5", "T11 sequence (Q8IVF5 885-986, limits assumed, looked up)": "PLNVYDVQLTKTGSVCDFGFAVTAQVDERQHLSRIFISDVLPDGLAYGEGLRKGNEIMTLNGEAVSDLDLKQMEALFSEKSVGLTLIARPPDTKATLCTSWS", "experiment": "holdup assay", "set-up": "key: below the threshold = too weak to quantify, mostly under pKd 3.1 to 4", "settings": "plain residues with an end cap or a label only (N-terminal biotin on a linker: ado-ado)", "values": [
      {"binder": "ILRKSTTTTV", "note": "[PRR16, Q569H4]", "pKd": "below the threshold"}
    ]}
  ]
}
